Sequences and labels used below:
B1: ammodytoxin A (enzyme)
chain: SLLEFGMMILGETGKNPLTSYSFYGCYCGVGGKGTPKDATDRCCFVHDCCYGNLPDCSPKTDRYKYHRENGAIVCGKGTSCENRICECDRAAAICFRKNLKTYNYIYRNYPDFLCKKESEKC
B2: ammodytoxin B (enzyme)
chain: B1 chain with Y105H, R108M, N109Y
notes: also called AtxB
B3: ammodytoxin C (enzyme)
chain: B1 chain with F113I, K117E
notes: also called AtxC
B4: Bmh1 (natural protein, S. cerevisiae, UniProt P29311 1-267, looked up)
chain: MSTSREDSVYLAKLAEQAERYEEMVENMKTVASSGQELSVEERNLLSVAYKNVIGARRASWRIVSSIEQKEESKEKSEHQVELICSYRSKIETELTKISDDILSVLDSHLIPSATTGESKVFYYKMKGDYHRYLAEFSSGDAREKATNASLEAYKTASEIATTELPPTHPIRLGLALNFSVFYYEIQNSPDKACHLAKQAFDDAIAELDTLSEESYKDSTLIMQLLRDNLTLWTSDMSESGQAEDQQQQQQHQQQQPPAAAEGEAPK
notes: also called yeast 14-3-3 protein Bmh1; recombinant Bmh1
B5: Bmh2 (natural protein, S. cerevisiae, UniProt P34730 1-273, looked up)
chain: MSQTREDSVYLAKLAEQAERYEEMVENMKAVASSGQELSVEERNLLSVAYKNVIGARRASWRIVSSIEQKEESKEKSEHQVELIRSYRSKIETELTKISDDILSVLDSHLIPSATTGESKVFYYKMKGDYHRYLAEFSSGDAREKATNSSLEAYKTASEIATTELPPTHPIRLGLALNFSVFYYEIQNSPDKACHLAKQAFDDAIAELDTLSEESYKDSTLIMQLLRDNLTLWTSDISESGQEDQQQQQQQQQQQQQQQQQAPAEQTQGEPTK
notes: also called yeast 14-3-3 protein Bmh2; recombinant Bmh2
B6: ammodytin L (natural protein)
chain: SVIEFGKMIQEETDKNPLTSYSFYGCHCGLGNKGKPKDATDRCCFVHSCCYAKLPDCSPKTNRYEYHRENGAIVCGSSTPCKKQICECDRAAAICFRENLKTYNKKYKVYLRFKCKGVSEKC

Numbering of substitutions follows the chain as printed.

The target in series [1] is B5. Kind of series: SPR. To be noted: both partners purified.
In series [2] the target is B4. The experiment in a line: SPR. The settings on record: both partners purified.
Series [3] addresses B5. The experiment in a line: SPR; BiacoreX, 25°C; recombinant Bmh1 or Bmh2 in 50 mM Tris (pH 7.5), 150 mM NaCl, 0.1 mM CaCl2 immobilized to CM5 chips; 2 µM sPLA2 injected; dissociation monitored 180 s; responses corrected for surface density and molecular weights. The settings on record: both partners purified. (In general: SPR reads the build-up and loss of mass on a sensor chip optically.)

Series [4] has as its target B4. The description is as above. The settings on record: both partners purified.
The series “dynamic light scattering” concerns the molecule itself. The experiment in a line: dynamic light scattering.

Turning to B1, the binding result with Bmh2 [1] and with Bmh1 [2] was “binds” each time. Regarding B2, the binding result with Bmh2 [3] and in the series with Bmh1 [4] was “binds” each time. For the molecule B3, the binding result with Bmh2 [3] and with Bmh1 [4] was “binds” each time.

With B4, in “dynamic light scattering”, the stoichiometry N (commonly the number of molecules, sites or subunits per partner or assembly) stood at 2.

For B5, the “stoichiometry N” value in “dynamic light scattering” worked out at 2. In the case of B6, the binding result with Bmh2 [1] and with Bmh1 [2] was “binds” in each case.
